± gives the standard deviation of the averaged measurements.
Assay: total protein half-life in vivo (active degradation + dilution); higher = more stable protein
[1] = E. coli NCM3722 delta-clpP delta-lon delta-hslV, growth: N-lim chemostat, doubling time 6 h
[2] = E. coli NCM3722 delta-clpP, growth: N-lim chemostat, doubling time 6 h
[3] = E. coli NCM3722 delta-hslV, growth: N-lim chemostat, doubling time 6 h
[4] = E. coli NCM3722 delta-lon, growth: N-lim chemostat, doubling time 6 h
[5] = E. coli NCM3722 delta-smpB, growth: N-lim chemostat, doubling time 6 h
[6] = wild type E. coli NCM3722, growth: C-lim chemostat, doubling time 3 h
[7] = wild type E. coli NCM3722, growth: C-lim chemostat, doubling time 6 h
[8] = wild type E. coli NCM3722, growth: C-lim chemostat, doubling time 12 h
[9] = wild type E. coli NCM3722, growth: N-lim chemostat, doubling time 6 h
[10] = wild type E. coli NCM3722, growth: N-lim chemostat, doubling time 12 h
[11] = wild type E. coli NCM3722, growth: P-lim chemostat, doubling time 6 h
[12] = wild type E. coli NCM3722, growth: P-lim chemostat, doubling time 12 h

MAEFPASLLILNGKSTDNLPLREAIMLLREEGMTIHVRVTWEKGDAARYVEEARKFGVATVIAGGGDGTINEVSTALIQCEGDDIPALGILPLGTANDFATSVGIPEALDKALKLAIAGDAIAIDMAQVNKQTCFINMATGGFGTRITTETPEKLKAALGSVSYIIHGLMRMDTLQPDRCEIRGENFHWQGDALVIGIGNGRQAGGGQQLCPNALINDGLLQLRIFTGDEILPALVSTLKSDEDNPNIIEGASSWFDIQAPHDITFNLDGEPLSGQNFHIEILPAALRCRLPPDCPLLR
total protein half-life in vivo [1]: 5 ± 0.044 h | total protein half-life in vivo [2]: 4.23 ± 0.21 h | total protein half-life in vivo [3]: 3.94 ± 0.33 h | total protein half-life in vivo [4]: 4.69 ± 0.069 h | total protein half-life in vivo [5]: 4.31 ± 0.74 h | total protein half-life in vivo [6]: 3.19 ± 0.41 h | total protein half-life in vivo [7]: 5.73 ± 0.4 h | total protein half-life in vivo [8]: 9.08 ± 0.56 h | total protein half-life in vivo [9]: 4.51 ± 0.3 h | total protein half-life in vivo [10]: 7.91 ± 0.14 h | total protein half-life in vivo [11]: 5.17 ± 0.48 h | total protein half-life in vivo [12]: 9.75 ± 0.16 h

MAEHRGGSGNFAEDREKASDAGRKGGQHSGGNFKNDPQRASEAGKKGGQQSGGNKSGKS
total protein half-life in vivo [1]: 0.599 h | total protein half-life in vivo [4]: 1.5 h | total protein half-life in vivo [9]: 1.49 h | total protein half-life in vivo [10]: 1.92 ± 0.038 h

MAEKFIKHTGLVVPLDAANVDTDAIIPKQFLQKVTRTGFGAHLFNDWRFLDEKGQQPNPDFVLNFPQYQGASILLARENFGCGSSREHAPWALTDYGFKVVIAPSFADIFYGNSFNNQLLPVKLSDAEVDELFALVKANPGIHFDVDLEAQEVKAGEKTYRFTIDAFRRHCMMNGLDSIGLTLQHDDAIAAYEAKQPAFMN
total protein half-life in vivo [1]: 3.91 ± 0.1 h | total protein half-life in vivo [2]: 1.33 ± 0.047 h | total protein half-life in vivo [3]: 2.363 ± 0.02 h | total protein half-life in vivo [4]: 3.85 ± 0.072 h | total protein half-life in vivo [5]: 2.306 ± 0.018 h | total protein half-life in vivo [6]: 1.96 ± 0.16 h | total protein half-life in vivo [7]: 3.02 ± 0.097 h | total protein half-life in vivo [8]: 3.926 ± 0.038 h | total protein half-life in vivo [9]: 2.54 ± 0.17 h | total protein half-life in vivo [10]: 4.05 ± 1.3 h | total protein half-life in vivo [11]: 2.1 ± 0.28 h | total protein half-life in vivo [12]: 5.15 ± 0.8 h

MAEKKQWHETLHDQFGQYFAVDNVLYHEKTDHQDLIIFENAAFGRVMALDGVVQTTERDEFIYHEMMTHVPLLAHGHAKHVLIIGGGDGAMLREVTRHKNVESITMVEIDAGVVSFCRQYLPNHNAGSYDDPRFKLVIDDGVNFVNQTSQTFDVIISDCTDPIGPGESLFTSAFYEGCKRCLNPGGIFVAQNGVCFLQQEEAIDSHRKLSHYFSDVGFYQAAIPTYYGGIMTFAWATDNDALRHLSTEIIQARFLASGLKCRYYNPAIHTAAFALPQYLQDALASQPS
total protein half-life in vivo [2]: 4.62 ± 0.2 h | total protein half-life in vivo [3]: 4.51 ± 0.12 h | total protein half-life in vivo [4]: 4.89 ± 0.27 h | total protein half-life in vivo [5]: 4.49 ± 0.41 h | total protein half-life in vivo [7]: 7.06 ± 0.82 h | total protein half-life in vivo [8]: 9.58 ± 0.14 h | total protein half-life in vivo [9]: 4.21 ± 0.35 h | total protein half-life in vivo [10]: 7.27 ± 0.36 h | total protein half-life in vivo [11]: 5.86 ± 0.46 h | total protein half-life in vivo [12]: 13 ± 2.3 h

MAEKQTAKRNRREEILQSLALMLESSDGSQRITTAKLAASVGVSEAALYRHFPSKTRMFDSLIEFIEDSLITRINLILKDEKDTTARLRLIVLLLLGFGERNPGLTRILTGHALMFEQDRLQGRINQLFERIEAQLRQVLREKRMREGEGYTTDETLLASQILAFCEGMLSRFVRSEFKYRPTDDFDARWPLIAAQLQ [P0C093]
total protein half-life in vivo [1]: 6.82 ± 0.62 h | total protein half-life in vivo [3]: 5.04 ± 0.42 h | total protein half-life in vivo [4]: 5.5 ± 0.72 h | total protein half-life in vivo [5]: 4.65 ± 0.39 h | total protein half-life in vivo [6]: 2.5806 ± 0.0014 h | total protein half-life in vivo [7]: 5.49 ± 0.15 h | total protein half-life in vivo [8]: 9.76 ± 1.4 h | total protein half-life in vivo [9]: 4.89 ± 0.97 h | total protein half-life in vivo [10]: 9.106 ± 0.086 h | total protein half-life in vivo [11]: 4.14 ± 0.13 h | total protein half-life in vivo [12]: 7.01 ± 0.77 h

MAEKRNIFLVGPMGAGKSTIGRQLAQQLNMEFYDSDQEIEKRTGADVGWVFDLEGEEGFRDREEKVINELTEKQGIVLATGGGSVKSRETRNRLSARGVVVYLETTIEKQLARTQRDKKRPLLHVETPPREVLEALANERNPLYEEIADVTIRTDDQSAKVVANQIIHMLESN [P0A6D7]
total protein half-life in vivo [1]: 4.84 ± 0.069 h | total protein half-life in vivo [2]: 3.45 ± 0.24 h | total protein half-life in vivo [3]: 2.76 ± 0.24 h | total protein half-life in vivo [4]: 4.2 ± 0.64 h | total protein half-life in vivo [5]: 2.69 ± 0.079 h | total protein half-life in vivo [6]: 2.24 ± 0.27 h | total protein half-life in vivo [7]: 3.989 ± 0.026 h | total protein half-life in vivo [8]: 5.31 ± 0.22 h | total protein half-life in vivo [9]: 2.26 ± 0.05 h | total protein half-life in vivo [10]: 3.61 ± 0.34 h | total protein half-life in vivo [11]: 2.62 ± 0.12 h | total protein half-life in vivo [12]: 4.5 ± 0.26 h

MAELLLGVNIDHIATLRNARGTAYPDPVQAAFIAEQAGADGITVHLREDRRHITDRDVRILRQTLDTRMNLEMAVTEEMLAIAVETKPHFCCLVPEKRQEVTTEGGLDVAGQRDKMRDACKRLADAGIQVSLFIDADEEQIKAAAEVGAPFIEIHTGCYADAKTDAEQAQELARIAKAATFAASLGLKVNAGHGLTYHNVKAIAAIPEMHELNIGHAIIGRAVMTGLKDAVAEMKRLMLEARG [P0A794]
total protein half-life in vivo [1]: 5.813 ± 0.038 h | total protein half-life in vivo [2]: 5.468 ± 0.049 h | total protein half-life in vivo [3]: 5.95 ± 0.48 h | total protein half-life in vivo [4]: 5.61 ± 0.29 h | total protein half-life in vivo [5]: 5.4 ± 0.14 h | total protein half-life in vivo [6]: 3.17 ± 0.12 h | total protein half-life in vivo [7]: 5.5 ± 0.1 h | total protein half-life in vivo [8]: 11.7 ± 0.53 h | total protein half-life in vivo [9]: 5.9 ± 0.39 h | total protein half-life in vivo [10]: 9.84 ± 0.17 h | total protein half-life in vivo [11]: 6.06 ± 0.43 h

MAELTALHTLTAQMKREGIRRLLVLSGEEGWCFEHTLKLRDALPGDWLWISPRPDAENHCSPSALQTLLGREFRHAVFDARHGFDAAAFAALSGTLKAGSWLVLLLPVWEEWENQPDADSLRWSDCPDPIATPHFVQHLKRVLTADNEAILWRQNQPFSLAHFTPRTDWYPATGAPQPEQQQLLKQLMTMPPGVAAVTAARGRGKSALAGQLISRIAGRAIVTAPAKASTDVLAQFAGEKFRFIAPDALLASDEQADWLVVDEAAAIPAPLLHQLVSRFPRTLLTTTVQGYEGTGRGFLLKFCARFPHLHRFELQQPIRWAQGCPLEKMVSEALVFDDENFTHTPQGNIVISAFEQTLWQSDPETPLKVYQLLSGAHYRTSPLDLRRMMDAPGQHFLQAAGENEIAGALWLVDEGGLSQQLSQAVWAGFRRPRGNLVAQSLAAHGNNPLAATLRGRRVSRIAVHPARQREGTGRQLIAGALQYTQDLDYLSVSFGYTGELWRFWQRCGFVLVRMGNHREASSGCYTAMALLPMSDAGKQLAEREHYRLRRDAQALAQWNGETLPVDPLNDAVLSDDDWLELAGFAFAHRPLLTSLGCLLRLLQTSELALPALRGRLQKNASDAQLCTTLKLSGRKMLLVRQREEAAQALFALNDVRTERLRDRITQWQLFH
total protein half-life in vivo [1]: 5 ± 1.1 h | total protein half-life in vivo [2]: 4.59 ± 0.41 h | total protein half-life in vivo [3]: 4.37 ± 0.39 h | total protein half-life in vivo [4]: 4.56 ± 0.19 h | total protein half-life in vivo [5]: 4.39 ± 0.29 h | total protein half-life in vivo [6]: 3.04 ± 0.3 h | total protein half-life in vivo [7]: 6.05 ± 0.38 h | total protein half-life in vivo [9]: 4.07 ± 1.4 h | total protein half-life in vivo [10]: 7.56 ± 0.58 h | total protein half-life in vivo [11]: 6.65 ± 0.2 h | total protein half-life in vivo [12]: 12.2 ± 1.5 h
